# Biological target: type I collagen (collagen membrane or collagen gel)
# Test: modified ELISA on type I collagen membrane (6.0 mg), Kd calculated by Matsushita's method
row,Kd,Substance
1,510 nM,"CBD-NGF, histidine-affinity tagged fusion protein comprising the collagen binding domain and beta-NGF mature peptide"
2,1500 nM,"NAT-NGF, beta-NGF mature peptide with the histidine-affinity tag (ligand)"

# Reference: US20140315253A1
